Experimental data published in patent EP4714971A1 (Shanghai Hansoh Biomedical Co., Ltd., dated 2024).

T1: human SEZ6 expressed on stably transfected CHO-K1 cells (human, UniProt Q53EL9 20-994)
T1 construct: also called CHO-SEZ6; hSEZ6
T1 sequence: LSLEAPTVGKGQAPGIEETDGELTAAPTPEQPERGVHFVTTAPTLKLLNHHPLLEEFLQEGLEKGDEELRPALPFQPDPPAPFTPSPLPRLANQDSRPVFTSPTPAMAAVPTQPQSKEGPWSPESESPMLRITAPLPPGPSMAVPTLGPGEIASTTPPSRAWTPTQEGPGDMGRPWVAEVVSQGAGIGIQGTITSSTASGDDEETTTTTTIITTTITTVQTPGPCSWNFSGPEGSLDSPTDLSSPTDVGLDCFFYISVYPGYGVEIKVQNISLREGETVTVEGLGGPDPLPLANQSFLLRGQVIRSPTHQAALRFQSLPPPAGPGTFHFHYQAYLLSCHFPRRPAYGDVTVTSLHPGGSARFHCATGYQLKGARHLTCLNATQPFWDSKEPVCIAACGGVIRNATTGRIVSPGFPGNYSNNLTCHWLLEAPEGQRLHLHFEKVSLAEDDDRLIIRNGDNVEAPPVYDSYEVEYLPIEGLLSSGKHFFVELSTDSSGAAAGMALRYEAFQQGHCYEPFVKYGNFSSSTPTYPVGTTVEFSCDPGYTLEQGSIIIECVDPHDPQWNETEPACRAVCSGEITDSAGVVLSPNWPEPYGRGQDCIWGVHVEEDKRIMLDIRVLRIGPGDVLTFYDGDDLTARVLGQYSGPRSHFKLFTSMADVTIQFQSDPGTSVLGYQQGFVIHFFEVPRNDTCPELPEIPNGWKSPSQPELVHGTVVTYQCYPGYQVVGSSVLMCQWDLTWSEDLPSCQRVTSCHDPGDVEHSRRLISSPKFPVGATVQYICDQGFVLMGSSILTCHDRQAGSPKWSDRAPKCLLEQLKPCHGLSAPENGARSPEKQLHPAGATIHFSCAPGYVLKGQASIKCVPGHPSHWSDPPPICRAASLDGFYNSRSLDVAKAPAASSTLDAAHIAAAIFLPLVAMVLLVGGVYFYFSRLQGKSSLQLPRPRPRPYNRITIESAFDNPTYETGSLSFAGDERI

T2: Recombinant human SEZ6-His6 protein (human, UniProt Q53EL9 20-925)
T2 construct: also called His-tagged SEZ6 antigen
T2 sequence: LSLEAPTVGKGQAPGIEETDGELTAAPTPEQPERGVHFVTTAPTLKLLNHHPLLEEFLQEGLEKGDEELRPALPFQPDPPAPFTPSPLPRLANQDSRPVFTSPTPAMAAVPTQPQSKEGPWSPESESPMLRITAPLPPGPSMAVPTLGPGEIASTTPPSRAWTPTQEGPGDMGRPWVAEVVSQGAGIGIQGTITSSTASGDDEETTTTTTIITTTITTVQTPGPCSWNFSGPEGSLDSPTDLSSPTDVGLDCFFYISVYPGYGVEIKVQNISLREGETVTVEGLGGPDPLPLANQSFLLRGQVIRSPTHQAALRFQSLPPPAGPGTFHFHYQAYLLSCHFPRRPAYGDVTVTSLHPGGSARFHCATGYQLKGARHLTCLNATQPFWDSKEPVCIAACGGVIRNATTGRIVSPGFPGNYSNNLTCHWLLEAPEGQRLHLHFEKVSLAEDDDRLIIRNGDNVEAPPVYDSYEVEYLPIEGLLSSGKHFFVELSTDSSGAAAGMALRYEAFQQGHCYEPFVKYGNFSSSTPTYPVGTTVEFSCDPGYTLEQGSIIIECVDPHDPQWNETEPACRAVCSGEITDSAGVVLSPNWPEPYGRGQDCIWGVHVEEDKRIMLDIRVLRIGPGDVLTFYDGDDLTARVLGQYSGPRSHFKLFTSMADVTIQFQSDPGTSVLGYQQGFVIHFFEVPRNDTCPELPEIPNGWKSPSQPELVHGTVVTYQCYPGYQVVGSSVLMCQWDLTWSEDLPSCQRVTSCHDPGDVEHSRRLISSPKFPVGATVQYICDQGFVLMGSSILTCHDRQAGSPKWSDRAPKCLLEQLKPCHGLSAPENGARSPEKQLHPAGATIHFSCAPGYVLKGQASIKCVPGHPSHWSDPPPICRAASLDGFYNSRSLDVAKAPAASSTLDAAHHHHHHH

T3: Recombinant monkey SEZ6-His6 protein (cynomolgus monkey, UniProt Q53EL9 20-925 (human entry))
T3 construct: also called Cynomolgus monkey SEZ6-His6
T3 chain: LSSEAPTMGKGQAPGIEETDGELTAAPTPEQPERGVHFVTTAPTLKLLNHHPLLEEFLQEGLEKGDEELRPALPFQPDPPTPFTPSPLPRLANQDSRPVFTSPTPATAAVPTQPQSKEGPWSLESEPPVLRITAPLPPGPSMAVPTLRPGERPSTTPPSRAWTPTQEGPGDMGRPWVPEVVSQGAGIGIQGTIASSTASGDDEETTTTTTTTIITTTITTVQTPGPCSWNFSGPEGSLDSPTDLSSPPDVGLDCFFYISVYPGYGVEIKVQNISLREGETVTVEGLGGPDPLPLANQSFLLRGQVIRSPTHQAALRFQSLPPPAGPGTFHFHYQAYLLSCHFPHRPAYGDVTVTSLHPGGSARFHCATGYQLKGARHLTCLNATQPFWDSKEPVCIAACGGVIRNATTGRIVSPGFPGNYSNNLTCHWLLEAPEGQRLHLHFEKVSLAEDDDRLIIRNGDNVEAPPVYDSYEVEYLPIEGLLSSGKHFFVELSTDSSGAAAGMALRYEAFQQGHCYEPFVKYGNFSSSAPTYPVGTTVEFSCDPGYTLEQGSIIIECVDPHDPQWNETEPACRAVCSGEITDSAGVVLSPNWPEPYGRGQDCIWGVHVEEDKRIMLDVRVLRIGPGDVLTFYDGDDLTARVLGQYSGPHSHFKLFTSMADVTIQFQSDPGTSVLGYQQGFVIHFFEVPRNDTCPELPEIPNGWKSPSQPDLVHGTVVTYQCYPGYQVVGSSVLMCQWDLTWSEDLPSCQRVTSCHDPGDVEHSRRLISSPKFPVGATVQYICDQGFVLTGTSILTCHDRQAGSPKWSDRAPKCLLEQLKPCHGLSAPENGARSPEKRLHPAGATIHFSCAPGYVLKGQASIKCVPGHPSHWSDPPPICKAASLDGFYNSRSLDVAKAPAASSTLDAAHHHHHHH


What was measured:
[1] = target: T1, human SEZ6 expressed on stably …; test: flow cytometry on CHO-K1 cells expressing human SEZ6
[2] = target: T2, Recombinant human SEZ6-His6 protein; test: SPR (BIAcore 8K), antibody captured on protein A chip, SEZ6-His6 as analyte, 1:1 Langmuir model
[3] = target: T3, Recombinant monkey SEZ6-His6 protein; test: as above

Row | EC50 [1] | MFImax [1] | Kd [2] | koff [2] | kon [2] | Kd [3] | koff [3] | kon [3] | Binder
1 | 0.05 nM | 1300 | 1.61 nM | 0.00064 s⁻¹ | 396000 M⁻¹ s⁻¹ | 1.55 nM | 0.000616 s⁻¹ | 398000 M⁻¹ s⁻¹ | PR3178 (antibody, human IgG1, kappa, V domains shown, Humanized, human IgG1, kappa; also called humanized antibody of cAb3009) VH: QVQLVQSGAEVKKPGASVKVSCKASGYTFTDYEMHWVRQAPGQGLEWMGGIDPESDNTVYNQKFKGRVTLTEDTSTSTAYMELRSLRSEDTAVYYCTRGDWYFDVWGQGTTVTVSS VL: DIVMTQSPDSLAVSLGERATINCKSSQSLLNSRTRENYLAWYQQKPGQPPKLLIYWASTRESGVPDRFSGSGSGTDFTLTISSLQAEDVAVYYCGQSYNLFTFGQGTKLEIKR
2 | 0.26 nM | 1160 | 59.9 nM | 0.00468 s⁻¹ | 78200 M⁻¹ s⁻¹ | 57.9 nM | 0.00475 s⁻¹ | 82000 M⁻¹ s⁻¹ | hSC200 (hSC17.200) (antibody, human IgG1, kappa, V domains shown, also called control molecule; control antibody) VH: EVQLVQSGAEVKKPGESLKISCKGSGYSFTSSWINWVRQMPGKGLEWMGRIYPGEGDTNYNGNFEGQVTISADKSISTAYLQWSSLKASDTAMYYCTRGLVMDYWGQGTLVTVSS VL: EIVLTQSPATLSLSPGERATLSCRASQSVDYNGISYMHWYQQKPGQAPRLLIYAASNVQSGIPARFSGSGSGTDFTLTISSLEPEDFAVYYCQQSIEDPPTFGGGTKVEIKR
